According to paper doi:10.1101/2022.12.23.521728 (bioRxiv, 2022):

Molecular target: ATP synthase F1 α subunit of G. stearothermophilus FoF1 (G. stearothermophilus, UniProt P09219 1-502)
Test: cryo-EM structure

Sequence of ATP synthase F1 α subunit of G. stearothermophilus FoF1 (P09219 whole entry): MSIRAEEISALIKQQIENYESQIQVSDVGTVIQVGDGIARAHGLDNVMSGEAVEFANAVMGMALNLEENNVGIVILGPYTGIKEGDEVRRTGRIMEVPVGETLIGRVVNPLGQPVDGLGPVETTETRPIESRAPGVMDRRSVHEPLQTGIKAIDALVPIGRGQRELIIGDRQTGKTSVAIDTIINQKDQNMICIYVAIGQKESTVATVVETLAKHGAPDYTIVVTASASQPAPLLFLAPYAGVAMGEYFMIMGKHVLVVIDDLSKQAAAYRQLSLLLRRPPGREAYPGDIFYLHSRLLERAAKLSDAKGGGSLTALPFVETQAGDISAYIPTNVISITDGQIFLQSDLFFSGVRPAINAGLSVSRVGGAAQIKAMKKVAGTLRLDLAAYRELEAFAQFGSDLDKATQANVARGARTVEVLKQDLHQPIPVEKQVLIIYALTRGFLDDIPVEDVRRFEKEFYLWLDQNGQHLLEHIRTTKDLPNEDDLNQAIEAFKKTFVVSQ

B1: ATP synthase F1 γ subunit of G. stearothermophilus FoF1 (natural protein)
chain: ASLRDIKTRINATKKTSQITKAMEMVLTSKLNRAEKREIVRPYMEKIQEVVANVALAARASHPMLVSRPVKKTGYLVITSDRGLAGAYNSNVLRLVYQTIQKRHASPDEYAIIVIGRVGLSFFRKRNMPVILDITRLPDQPSFADIKEIARKTVGLFADGTFDELYMYYNHYVSAIQQEVTERKLLPLTDLAENKQRTVYEFEPSQEEILDVLLPQYAESLIYGALLDAKASEHAARMTAMKNATDNANELIRTLTLSYNRARQAAITQEITEIVAGANALQ
**Q.** Does B1 bind?
**A.** binds
